Here are results for five sequences from publication PMC12710314.

The series deals with T1, LigR (Novosphingobium aromaticivorans DSM 12444), ORF:c1f1f590.
T1 sequence: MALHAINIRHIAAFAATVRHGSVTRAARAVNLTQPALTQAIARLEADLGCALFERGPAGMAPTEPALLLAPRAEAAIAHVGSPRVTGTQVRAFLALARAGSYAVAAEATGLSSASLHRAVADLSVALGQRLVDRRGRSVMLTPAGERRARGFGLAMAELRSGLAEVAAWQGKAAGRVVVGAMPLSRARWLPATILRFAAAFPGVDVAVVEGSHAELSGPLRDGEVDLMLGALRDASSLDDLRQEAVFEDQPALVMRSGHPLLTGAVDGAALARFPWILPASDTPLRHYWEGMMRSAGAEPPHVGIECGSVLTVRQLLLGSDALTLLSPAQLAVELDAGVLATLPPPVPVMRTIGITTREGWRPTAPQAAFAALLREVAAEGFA
Description: EMSA. Particulars: EMSA: 20 nM DNA, 50 mM Tris-HCl, 20 mM HEPES, 1 mM EDTA, 1 mM DTT, 100 mM NaCl, 10% glycerol, pH not stated, room temperature 30 min, gel at 4 C; DNase I …. (In general: Mobility shift assays separate free from complexed probe on a gel.)

As to “ATGCCCAGGCCGATGCCGCTGGCGCCGCCCGTCACGAAAGCCGTCTTGCCCGGCAGATTCTGCATCGATCCTCTCCTTTGGTGCCTTGCCGGCAGCCATCGACCGGCGCCGGGAATCATTTTTCGCCTTTTGTATTCACCAGCGAGGAATTGTATGCAAGACTAACAATATTGCTGCTTCGACAAGGCCCGCCGAAATGGGTCGCCGCAGCGGGA (double strand) [ligN upstream EMSA fragment]”, the binding result is listed as “no binding”.
Then “CAAAGGTCGACCCGGCCTCACCGAAGCCGATCAGGGCGATTGTGAACTCAGGAACGCTCTCCATGGCAGCGGTCCTGCGTCGGCCGCGCCAAAGGAACAAATGCAAACATCGCCCAAGGTATAAATTTATGCAAAGCCTTCTGCGGCCACTTCGCGCAGGAGGGCCGCGAAGGCCGCCTGCGGCGCGGTCGGCCGCCAAC (double strand) [SARO_RS14280 promoter EMSA fragment]”, with “binds”; and “CGATCTGAAGTGCTCAACGTGCAAAGCCTGCACAAAATGACAGGTCGTGCCGGCATCTCAATCGCCTGTTGCTTCCCCTTCTGCTGATTGCTATAAATCATAACAGATTGGGAGAGAGTCATGCAGTTTGAACGCATCAATCCGATGACCGGCGCCGTCGCCTCGCAGGCAGAGGCCATGAAAGCGTCGGACATTCCTTC (double strand) [ligV upstream EMSA fragment]”, with “no binding”; and “GCCTTCTGCTTCTCGCGCCACTCGTCGTGCGCCTTCGGCAGCACGGTGTAGTGACCGTGGCAGTCGATGATCATGGTCATGCGACTTCAGTCCTCTCAAGTTTGAACTCTATGGTCTTGCCCGCCTGCTCGCGCTGGCGCCTCACCGTCCCGCCGGTCATCACCGGCTCGACGCCCAGCGATTCCAGCGTCTTGGCTGAC (double strand) [ligJ upstream EMSA fragment]”, with “no binding”.
Then “GGACGACGATACCCGACATTTCCGGCTCCCGATGAAAGATCTTCGCGCGTTCCATGGAACTGCGGACCGCAGGGAACCAATGCATTGTTTGCCCCGGCCCATAAGGAAATGCTAAGTGATCAGGCATGGCCCTGCACGCGATCAACATCAGGCACATCGCCGCCTTCGCCGCAACGGTGCGCCACGGCAGCGTGACGCGG (double strand) [ligK promoter EMSA fragment]”, with “binds”.
